Source: patent US20240398911A1 (BOARD OF THE TRUSTEES OF THE UNIVERSITY OF ILLINOIS, published 2024)
Like-named read-outs stand apart in the source and are kept apart here.

Columns and labels:
[1] = biological target: full length S of SARS-CoV-2 (untagged, a.a. 1-1273) expressed on Expi293F cells (SARS-CoV-2, UniProt P0DTC2 16-1273)
[2] = biological target: T1, RBD (a.a. 333-529) of SARS-CoV-2 S with 8 histidine tag (SARS-CoV-2, UniProt P0DTC2 333-529)
[3] = biological target: T1, RBD (a.a. 333-529) of SARS-CoV-2 S with …; remark: listed apart in the source
[4] = biological target: S protein of SARS-CoV-1 expressed on Expi293F cells (SARS-CoV-1, UniProt P59594 14-1255); assay: flow cytometry; Expi293F cells expressing S of SARS-CoV-1; normalized units, N=3
[5] = biological target: T1, RBD (a.a. 333-529) of SARS-CoV-2 S with …; assay: BLI, sACE22-IgG1 immobilized, RBD-8h analyte

B1: sACE2.v2 with 8 histidine tag (receptor)
chain: STIEEQAKYFLDKFNHEAEDLFYQSSLASWNYNTNITEENVQNMNNAGDKWSAFLKEQSTTAQMYPLQEIQNLTVKLQLQALQQNGSSVLSEDKSKRLNTILNTMSTIYSTGKVCNPDNPQECLLLEPGLNEIMANSLDYNERLWAWESWRSEVGKQLRPLYEEYVVLKNEMARANHYEDYGDYWRGDYEVNGVDGYDYSRGQLIEDVEHTFEEIKPLYEHLHAYVRAKLMNAYPSYISPIGCLPAHLLGDMWGRFWTNLYSLTVPFGQKPNIDVTDAMVDQAWDAQRIFKEAEKFFVSVGLPNMTQGFWEYSMLTDPGNVQKAVCHPTAWDLGKGDFRILMCTKVTMDDFLTAHHEMGHIQYDMAYLAQPFLLRNGANEGFHEAVGEIMSLSAATPKHLKSIGLLSPDFQEDNETEINFLLKQALTIVGTLPFTYMLEKWRWMVFKGEIPKDQWMKKWWEMKREIVGVVEPVPHDETYCDPASLFHVSNDYSFIRYYTRTLYQFQFQEALCQAAKHEGPLHKCDISNSTEAGQKLFNMLRLGKSEPWTLALENVVGAKNMNVRPLLNYFEPLFTWLKDQNKNSFVGWSTDWSPYADGSGHHHHHHHH
[1]
  EC50 (read off the curve): ~10 nM
[2]
  IC50 (read off the curve): ~6 nM

B2: dimeric sACE22.v2.4 with 8 histidine tag (receptor)
chain: STIEEQAKYFLDKFNHEAEDLFYQSSLASWNYNTNITEENVQNMNNAGDKWSAFLKEQSTTAQMYPLQEIQNLTVKLQLQALQQNGSSVLSEDKSKRLNTILNTMSTIYSTGKVCNPDNPQECLLLEPGLNEIMANSLDYNERLWAWESWRSEVGKQLRPLYEEYVVLKNEMARANHYEDYGDYWRGDYEVNGVDGYDYSRGQLIEDVEHTFEEIKPLYEHLHAYVRAKLMNAYPSYISPIGCLPAHLLGDMWGRFWTNLYSLTVPFGQKPNIDVTDAMVDQAWDAQRIFKEAEKFFVSVGLPNMTQGFWEYSMLTDPGNVQKAVCHPTAWDLGKGDFRILMCTKVTMDDFLTAHHEMGHIQYDMAYAAQPFLLRNGANEGFHEAVGEIMSLSAATPKHLKSIGLLSPDFQEDNETEINFLLKQALTIVGTLPFTYMLEKWRWMVFKGEIPKDQWMKKWWEMKREIVGVVEPVPHDETYCDPASLFHVSNDYSFIRYYTRTLYQFQFQEALCQAAKHEGPLHKCDISNSTEAGQKLFNMLRLGKSEPWTLALENVVGAKNMNVRPLLNYFEPLFTWLKDQNKNSFVGWSTDWSPYADQSIKVRISLKSALGDKAYEWNDNEMYLFRSSVAYAMRQYFLKVKNQMILFGEEDVRVANLKPRISFNFFVTAPKNVSDIIPRTEVEKAIRMSRSRINDAFRLNDNSLEFLGIQPTLGGSGHHHHHHHH
[3]
  IC50 (read off the curve): ~4 nM

B3: REGN10933 (casirivimab) (antibody, V domains shown)
VH: QVQLVESGGGLVKPGGSLRLSCAASGFTFSDYYMSWIRQAPGKGLEWVSYITYSGSTIYYADSVKGRFTISRDNAKSSLYLQMNSLRAEDTAVYYCARDRGTTMVPFDYWGQGTLVTVSS
VL: DIQMTQSPSSLSASVGDRVTITCQASQDITNYLNWYQQKPGKAPKLLIYAASNLETGVPSRFSGSGSGTDFTFTISGLQPEDIATYYCQQYDNLPLTFGGGTKVEIKR
[4]
  binding result: no binding (tested: 70 nM)

B4: REGN10987 (imdevimab) (antibody, V domains shown)
VH: QVQLVESGGGVVQPGRSLRLSCAASGFTFSNYAMYWVRQAPGKGLEWVAVISYDGSNKYYADSVKGRFTISRDNSKNTLYLQMNSLRTEDTAVYYCASGSDYGDYLLVYWGQGTLVTVSS
VL: QSALTQPASVSGSPGQSITISCTGTSSDVGGYNYVSWYQQHPGKAPKLMIYDVSKRPSGVSNRFSGSKSGNTASLTISGLQSEDEADYYCNSLTSISTWVFGGGTKLTVLG
[4]
  binding result: no binding (tested: 70 nM)

B5: dimeric sACE22.v2 fused to the Fc of human IgG1 (Fc fusion)
chain: STIEEQAKYFLDKFNHEAEDLFYQSSLASWNYNTNITEENVQNMNNAGDKWSAFLKEQSTTAQMYPLQEIQNLTVKLQLQALQQNGSSVLSEDKSKRLNTILNTMSTIYSTGKVCNPDNPQECLLLEPGLNEIMANSLDYNERLWAWESWRSEVGKQLRPLYEEYVVLKNEMARANHYEDYGDYWRGDYEVNGVDGYDYSRGQLIEDVEHTFEEIKPLYEHLHAYVRAKLMNAYPSYISPIGCLPAHLLGDMWGRFWTNLYSLTVPFGQKPNIDVTDAMVDQAWDAQRIFKEAEKFFVSVGLPNMTQGFWEYSMLTDPGNVQKAVCHPTAWDLGKGDFRILMCTKVTMDDFLTAHHEMGHIQYDMAYLAQPFLLRNGANEGFHEAVGEIMSLSAATPKHLKSIGLLSPDFQEDNETEINFLLKQALTIVGTLPFTYMLEKWRWMVFKGEIPKDQWMKKWWEMKREIVGVVEPVPHDETYCDPASLFHVSNDYSFIRYYTRTLYQFQFQEALCQAAKHEGPLHKCDISNSTEAGQKLFNMLRLGKSEPWTLALENVVGAKNMNVRPLLNYFEPLFTWLKDQNKNSFVGWSTDWSPYADQSIKVRISLKSALGDKAYEWNDNEMYLFRSSVAYAMRQYFLKVKNQMILFGEEDVRVANLKPRISFNFFVTAPKNVSDIIPRTEVEKAIRMSRSRINDAFRLNDNSLEFLGIQPTLGGS
[5]
  Kd: 0.2 nM
  koff: 0.00014 s⁻¹
  kon: 580000 M⁻¹ s⁻¹
